The source of these data is publication PMC7642414, “R-spondins are BMP receptor antagonists in Xenopus early embryonic development” (Nature Communications, 2020).

What is called Kd is a measure of binding affinity in units of concentration.

The target in assay [1] is T1, recombinant human RSPO2 (human, UniProt Q6UXX9 22-243).
T1 construct: R-spondin 2, human, recombinant protein; source: bought: Peprotech 120-43
The assay can be described thus: solid-phase in vitro binding assay (AP fusion read-out); ternary complex: recombinant RSPO protein on plate-coated ZNRF3 Fc chimera (4-6 h), read out through BMPR1A^ECD-AP. As to conditions: both partners purified.

For another assay, the target named is T2, recombinant human RSPO3 (human, UniProt Q9BXY4 22-272).
T2 construct: R-spondin 3, human, recombinant protein; source: bought: Peprotech 120-44
T2 sequence (looked up): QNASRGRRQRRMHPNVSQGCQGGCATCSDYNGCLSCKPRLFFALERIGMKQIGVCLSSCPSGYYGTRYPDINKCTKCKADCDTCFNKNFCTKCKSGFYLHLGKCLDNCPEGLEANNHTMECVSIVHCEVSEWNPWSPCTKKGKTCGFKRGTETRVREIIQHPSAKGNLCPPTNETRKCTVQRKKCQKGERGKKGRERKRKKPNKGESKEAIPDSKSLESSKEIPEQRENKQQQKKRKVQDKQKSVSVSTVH
The assay is described as above. As to conditions: both partners purified.

The target in assay [2] is T1, recombinant human RSPO2. The assay can be described thus: solid-phase in vitro binding assay (AP fusion read-out); Scatchard plot; RSPO2 recombinant protein (Peprotech 120-43) and BMPR1A^ECD-AP. As to conditions: one partner purified.

T1 sequence (Q6UXX9 22-243): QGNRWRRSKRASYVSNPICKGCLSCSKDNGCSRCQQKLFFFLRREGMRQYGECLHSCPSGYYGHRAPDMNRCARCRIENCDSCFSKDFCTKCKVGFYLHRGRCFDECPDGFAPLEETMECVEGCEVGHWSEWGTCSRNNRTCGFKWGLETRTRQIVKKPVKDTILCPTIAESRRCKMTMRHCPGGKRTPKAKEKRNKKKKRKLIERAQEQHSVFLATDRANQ

B1: recombinant human ZNRF3 Fc Chimera protein (Fc fusion, UniProt Q9ULT6 56-219, looked up)
chain: KETAFVEVVLFESSPSGDYTTYTTGLTGRFSRAGATLSAEGEIVQMHPLGLCNNNDEEDLYEYGWVGVVKLEQPELDPKPCLTVLGKAKRAVQRGATAVIFDVSENPEAIDQLNQGSEDPLKRPVVYVKGADAIKLMNIVNKQKVARARIQHRPPRQPTEYFDM
notes: Zinc and ring finger 3 (ZNRF3), human, as Fc chimera; source: bought: R&D systems 7994-RF
Turning to B1, the binding result with recombinant human RSPO2 [1] and with recombinant human RSPO3 was “binds” each time.

B2: BMPR1A^ECD-AP (domain or fragment, human, UniProt P36894 24-152, looked up)
chain: QNLDSMLHGTGMKSDSDQKKSENGVTLAPEDTLPFLKCYCSGHCPDDAINNTCITNGHCFAIIEEDDQGETTLASGCMKYEGSDFQCKDSPKAQLRRTIECCRTNLCNQYLQPTLPPVVIGPFFDGSIR
notes: Extracellular domain of BMPR1A/ALK3; also called extracellular domain of BMPR1A; source: HEK293T, transiently transfected, conditioned medium
Turning to B2, the Kd with recombinant human RSPO2 [2] is ~4.8 nM.
